From IntAct's records for PubMed 18940611

B1: Programmed cell death 6-interacting protein (Homo sapiens), Q8WUM4 (parent)
chain: MATFISVQLKKTSEVDLAKPLVKFIQQTYPSGGEEQAQYCRAAEELSKLRRAAVGRPLDKHEGALETLLRYYDQICSIEPKFPFSENQICLTFTWKDAFDKGSLFGGSVKLALASLGYEKSCVLFNCAALASQIAAEQNLDNDEGLKIAAKHYQFASGAFLHIKETVLSALSREPTVDISPDTVGTLSLIMLAQAQEVFFLKATRDKMKDAIIAKLANQAADYFGDAFKQCQYKDTLPKEVFPVLAAKHCIMQANAEYHQSILAKQQKKFGEEIARLQHAAELIKTVASRYDEYVNVKDFSDKINRALAAAKKDNDFIYHDRVPDLKDLDPIGKATLVKSTPVNVPISQKFTDLFEKMVPVSVQQSLAAYNQRKADLVNRSIAQMREATTLANGVLASLNLPAAIEDVSGDTVPQSILTKSRSVIEQGGIQTVDQLIKELPELLQRNREILDESLRLLDEEEATDNDLRAKFKERWQRTPSNELYKPLRAEGTNFRTVLDKAVQADGQVKECYQSHRDTIVLLCKPEPELNAAIPSANPAKTMQGSEVVNVLKSLLSNLDEVKKEREGLENDLKSVNFDMTSKFLTALAQDGVINEEALSVTELDRVYGGLTTKVQESLKKQEGLLKNIQVSHQEFSKMKQSNNEANLREEVLKNLATAYDNFVELVANLKEGTKFYNELTEILVRFQNKCSDIVFARKTERDELLKDLQQSIAREPSAPSIPTPAYQSSPAGGHAPTPPTPAPRTMPPTKPQPPARPPPPVLPANRAPSATAPSPVGAGTAAPAPSQTPGSAPPPQAQGPPYPTYPGYPGYCQMPMPMGYNPYAYGQYNMPYPPVYHQSPGQAPYPGPQQPSYPFPQPPQQSYYPQQ
partner: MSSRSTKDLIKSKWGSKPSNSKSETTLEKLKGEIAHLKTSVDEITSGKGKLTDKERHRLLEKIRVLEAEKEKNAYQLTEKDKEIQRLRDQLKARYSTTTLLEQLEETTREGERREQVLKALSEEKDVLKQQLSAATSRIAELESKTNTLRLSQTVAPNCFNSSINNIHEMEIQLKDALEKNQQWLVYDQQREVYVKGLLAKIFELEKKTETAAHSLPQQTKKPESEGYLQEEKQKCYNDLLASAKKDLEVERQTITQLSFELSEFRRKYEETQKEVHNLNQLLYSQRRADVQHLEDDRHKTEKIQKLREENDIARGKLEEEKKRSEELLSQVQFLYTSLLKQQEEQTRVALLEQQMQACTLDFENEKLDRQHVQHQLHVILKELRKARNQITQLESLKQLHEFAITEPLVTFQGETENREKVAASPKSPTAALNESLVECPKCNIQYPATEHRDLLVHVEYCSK
B2: Programmed cell death 6-interacting protein (Homo sapiens), Q8WUM4 (parent)
chain: B1 chain
B3: Programmed cell death protein 6 (Homo sapiens), O75340 (parent)
chain: MAAYSYRPGPGAGPGPAAGAALPDQSFLWNVFQRVDKDRSGVISDTELQQALSNGTWTPFNPVTVRSIISMFDRENKAGVNFSEFTGVWKYITDWQNVFRTYDRDNSGMIDKNELKQALSGFGYRLSDQFHDILIRKFDRQGRGQIAFDDFIQGCIVLQRLTDIFRRYDTDQDGWIQVSYEQYLSMVFSIV

Variants of: B1
Details: with cep55_human CEP55, Q53EZ4
In the case of P802A, the “effect of a mutation on the interaction” value is reported as “disrupting interaction”.

Variants of: B2
Details: with pdcd6_human PDCD6, O75340
P804A was tested, and the “effect of a mutation on the interaction” value was “disrupting interaction”.
P802A was tested, and the “effect of a mutation on the interaction” value was “disrupting interaction”.
With Y803A the “effect of a mutation on the interaction” value was “disrupting interaction”.

Variants of: B2
Details: with pdcd6_human PDCD6, O75340
Remark: another data set of the same source
With P804A the “effect of a mutation on the interaction” value was “decreasing interaction”.
P802A was tested, and the “effect of a mutation on the interaction” value was “decreasing interaction”.
With Y803A the “effect of a mutation on the interaction” value was “decreasing interaction”.

Variants of: B3
Details: with pdc6i_human PDCD6IP
D169A was tested, and the “effect of a mutation on the interaction” value was “disrupting interaction”.
With Y91A the “effect of a mutation on the interaction” value was “disrupting interaction”.
In the case of Y180A, the “effect of a mutation on the interaction” value is reported as “disrupting interaction”.
For R125A, the “effect of a mutation on the interaction” value was “disrupting interaction”.
In the case of W95A, the “effect of a mutation on the interaction” value is reported as “disrupting interaction”.
Y124A was tested, and the “effect of a mutation on the interaction” value was “disrupting interaction”.
